# Laboratory results taken from paper PMC7939140.
# Target: BG505SOSIP.664 gp140 NFL (native flexible linker version of wild type) (HIV-1 (BG505 isolate, clade A))
# Test: native gel or EMSA
substance,measurement,value
BG505SOSIP.664 gp140 NFL (native flexible linker version of wild type) (natural protein),stoichiometry N,3
